# Assay results from patent US20040107456A1 (ACADEMIA SINICA, published 2004).
# B1: GAD-OsMYBS3 fusion protein (other)
# chain: MTRRCSHCSHNGHNSRTCPNRGVKIFGVRLTDGSIRKSASMGNLSLLSSAAGSTSGGASPADGPDAAPTAADGYASDDFVQGFSSATRDRKKGVPWTEEEHRRFLLGLQKLGKGDWRGISRNFVVSRTPTQVASHAQKYFIRQSNMTRRKRRSSLFDMVPDESMDLPPLPGGQEPETQVLNQPALPPPKEEEEVDSMESDTSAVAESSSASAIMPDNLQSTYPVIVPAYFSPFLQFSVPFWQNQKDEDGPVQETHEIVKPVPVHSKSPINVDELVGMSKLSIGESNQETESTSLSLNLVGGQNRQSAFHANPPTRAQA
# notes: Two-hybrid prey expressed from the Ubi promoter in barley aleurone cells; not shown: limits not
# B2: GAD-OsMYBS1 fusion protein (other)
# chain: MTSQAATTTTTAAAAAAWTREDDKAFENALAACAAPPPADGGAPDDDWFAALAASVPGARSAEEVRRHYEALVEDVAAIDAGRVPLPRYAGEESAAPPDGAGAAAAASKDGGHRRDERKGGGGGYDGGKSCSKAEQERRKGIPWTEEEHRLFLLGLDKFGKGDWRSISRNFVISRTPTQVASHAQKYFIRLNSMNRDRRRSSIHDITSVTAGDQVAAQQGAPITGHQATGNPAAAALGPPGMKHHHHHHPGGAPPPMPMYSAAPMGHPVAGHMVPAAVGTPVVFPPGHAPYVVPVGYPAPPAKMHQ
# notes: as for B1
# How the values were obtained:
# [1] = target: T1, GBD-OsMYBS3 fusion protein (yeast; rice); experiment: two-hybrid in barley aleurone cells, luciferase reporter; similar results in yeast two-hybrid
# T1 construct: Two-hybrid bait
# Description: (§1) In c-Myb, R2 and R3 bind to specific DNA sequences cooperatively. To test the possibility that OsMYBS binds DNA as dimers, homologous and heterologous interactions among OsMYBS proteins were analyzed using a two-hybrid system in barley aleurone cells. The full-length OsMYBS sequences were individually fused at the C-terminus of GAD or GBD. The GAD-OsMYBS and GBD-OsMYBS chimeric genes were fused downstream of the Ubi promoter and used as effector constructs. A DNA fragment containing five tandem repeats of UAS (5×UAS) was fused upstream of the CaMV35S minimal promoter-Luc chimeric gene and used as a reporter construct. The barley half seeds were particle-bombarded simultaneously with two effector plasmids, each containing GAD-OsMYBS and GBD-OsMYBS fusion genes, and the reporter plasmid. The bombarded half seeds were incubated in buffer without glucose for 24 h, and luciferase activity was determined. […] Except that the background level of reporter gene expression in the presence of GBD-OsMYBS1 alone is too high to detect the interactions between GBD-OsMYBS1 and GAD-OsMYBS proteins, similar results were obtained with the yeast two-hybrid experiments.
# [2] = target: T2, GBD-OsMYBS2 fusion protein (yeast; rice); experiment: as above
# T2 construct: Two-hybrid bait
# Description: as §1
# [3] = target: T3, GBD-OsMYBS1 fusion protein (yeast; rice, UniProt P04386 1-147); experiment: two-hybrid in barley aleurone cells, luciferase reporter
# T3 construct: Two-hybrid bait expressed from the Ubi promoter in barley aleurone cells
# Description: as §1
Binder,binding result [1],binding result [2],binding result [3]
B1,no binding,no binding,no binding
B2,no binding,no binding,
